From US20230406951A1 (Pfizer, published 2023) come the findings set out here.

The experiment concerns the target T1, human TNFR2 (human, UniProt P20333 23-461).
T1 construct: expressed on the surface of CHO cells; also called HuTNFR2; TNFRSF1B
T1 sequence: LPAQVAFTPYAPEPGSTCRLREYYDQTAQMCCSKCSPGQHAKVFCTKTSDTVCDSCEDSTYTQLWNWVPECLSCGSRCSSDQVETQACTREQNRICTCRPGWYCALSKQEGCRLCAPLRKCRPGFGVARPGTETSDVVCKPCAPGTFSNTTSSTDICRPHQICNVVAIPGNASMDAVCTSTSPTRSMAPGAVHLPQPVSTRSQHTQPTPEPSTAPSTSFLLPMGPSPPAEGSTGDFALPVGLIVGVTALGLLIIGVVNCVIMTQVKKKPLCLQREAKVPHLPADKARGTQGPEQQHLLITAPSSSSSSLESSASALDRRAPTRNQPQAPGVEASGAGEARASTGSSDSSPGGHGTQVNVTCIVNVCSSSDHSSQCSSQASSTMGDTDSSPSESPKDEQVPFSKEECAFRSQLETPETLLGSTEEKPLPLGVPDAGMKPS
Put plainly: binding to human TNFR2 CHO cells.

B1: IgG 1922 (antibody, name in Kabat numbering, V domains shown)
VH: QVQLVQSGAEVKKPGASVKVSCKVSGFSFPSSGVDWVRQAPGQGLEWLGVTWGVGSTHYNQKFQGRVTITKDTSKSTVYMELSSLRSEDTAVYYCASGESTEGFVYWGQGTLVTVSS
VL: DIQLTQSPSFLSASVGDRVTITCKASQNVGTAVAWYQQKPGKAPKLLIYAASTLQSGVPSRFSGSGSGTEFTLTISSLQPEDFATYYCQQYNSYPFGGGTKVEIKR
notes: IgG
With B1, the binding result is reported as “no binding”.

B2: IgG 1980 (antibody, name in Kabat numbering, V domains shown)
VH: QVQLVQSGAEVKKPGASVKVSCKVSGFSFPSSGVDWVRQAPGQGLEWLGVTRGEGSTHYNQKFQGRVTITKDTSKSTVYMELSSLRSEDTAVYYCASGEQDEGFVYWGQGTLVTVSS
VL: DIQLTQSPSFLSASVGDRVTITCKASQNVGTAVAWYQQKPGKAPKLLIYAASTLQSGVPSRFSGSGSGTEFTLTISSLQPEDFATYYCQQYNSYPFGGGTKVEIKR
notes: IgG
For the molecule B2, the binding result is reported as “no binding”.

B3: IgG 1927 (antibody, name in Kabat numbering, V domains shown)
VH: QVQLVQSGAEVKKPGASVKVSCKVSGFSFPSSGVDWVRQAPGQGLEWLGVTRGEGSTHYNQKFQGRVTITKDTSKSTVYMELSSLRSEDTAVYYCASGEWDEGFVYWGQGTLVTVSS
VL: DIQLTQSPSFLSASVGDRVTITCKASQNVGTAVAWYQQKPGKAPKLLIYAASTLQSGVPSRFSGSGSGTEFTLTISSLQPEDFATYYCQQYYSTPFGGGTKVEIKR
notes: IgG
For the molecule B3, the binding result is “no binding”.

B4: IgG 1977 (antibody, name in Kabat numbering, V domains shown)
VH: QVQLVQSGAEVKKPGASVKVSCKVSGFSFPSSGVDWVRQAPGQGLEWLGVTRGEGSTHYNQKFQGRVTITKDTSKSTVYMELSSLRSEDTAVYYCASGESTEGFVYWGQGTLVTVSS
VL: DIQLTQSPSFLSASVGDRVTITCKASQNVGTAVAWYQQKPGKAPKLLIYAASTLQSGVPSRFSGSGSGTEFTLTISSLQPEDFATYYCQQYNSYPFGGGTKVEIKR
notes: IgG
On to B4, for which the binding result is reported as “no binding”.

B5: IgG 1989 (antibody, name in Kabat numbering, V domains shown)
VH: QVQLVQSGAEVKKPGASVKVSCKVSGFSFPSSGVDWVRQAPGQGLEWLGVTHGSGSTHYNQKFQGRVTITKDTSKSTVYMELSSLRSEDTAVYYCASGESTEGFVYWGQGTLVTVSS
VL: DIQLTQSPSFLSASVGDRVTITCKASQNVGTAVAWYQQKPGKAPKLLIYAASTLQSGVPSRFSGSGSGTEFTLTISSLQPEDFATYYCQQYNSYPFGGGTKVEIKR
notes: IgG
For the molecule B5, the binding result is “no binding”.

B6: IgG 1973 (antibody, name in Kabat numbering, V domains shown)
VH: QVQLVQSGAEVKKPGASVKVSCKVSGFSFPSSGVDWVRQAPGQGLEWLGVTKGQGSTHYNQKFQGRVTITKDTSKSTVYMELSSLRSEDTAVYYCASGESTEGFVYWGQGTLVTVSS
VL: DIQLTQSPSFLSASVGDRVTITCKASQNVGTAVAWYQQKPGKAPKLLIYAASTLQSGVPSRFSGSGSGTEFTLTISSLQPEDFATYYCQQYNSYPFGGGTKVEIKR
notes: IgG
As to B6, the binding result was “no binding”.

B7: IgG 1987 (antibody, name in Kabat numbering, V domains shown)
VH: QVQLVQSGAEVKKPGASVKVSCKVSGFSFPSSGVDWVRQAPGQGLEWLGVTLGHGSTHYNQKFQGRVTITKDTSKSTVYMELSSLRSEDTAVYYCASGERDEGFVYWGQGTLVTVSS
VL: DIQLTQSPSFLSASVGDRVTITCKASQNVGTAVAWYQQKPGKAPKLLIYAASTLQSGVPSRFSGSGSGTEFTLTISSLQPEDFATYYCQQYNSYPFGGGTKVEIKR
notes: IgG
Regarding B7, the binding result was “no binding”.

B8: IgG 1933 (antibody, name in Kabat numbering, V domains shown)
VH: QVQLVQSGAEVKKPGASVKVSCKVSGFSFPSSGVDWVRQAPGQGLEWLGVTWGVGSTHYNQKFQGRVTITKDTSKSTVYMELSSLRSEDTAVYYCASGERDEGFVYWGQGTLVTVSS
VL: DIQLTQSPSFLSASVGDRVTITCKASQNVGTAVAWYQQKPGKAPKLLIYAASTLQSGVPSRFSGSGSGTEFTLTISSLQPEDFATYYCQQYYSTPFGGGTKVEIKR
notes: IgG
Consider B8, for which the binding result is reported as “no binding”.

B9: IgG 1925 (antibody, name in Kabat numbering, V domains shown)
VH: QVQLVQSGAEVKKPGASVKVSCKVSGFSFPSSGVDWVRQAPGQGLEWLGVTWGVGSTHYNQKFQGRVTITKDTSKSTVYMELSSLRSEDTAVYYCASGEQDEGFVYWGQGTLVTVSS
VL: DIQLTQSPSFLSASVGDRVTITCKASQNVGTAVAWYQQKPGKAPKLLIYAASTLQSGVPSRFSGSGSGTEFTLTISSLQPEDFATYYCQQYNSYPFGGGTKVEIKR
notes: IgG
With B9, the binding result is listed as “no binding”.

B10: IgG 1982 (antibody, name in Kabat numbering, V domains shown)
VH: QVQLVQSGAEVKKPGASVKVSCKVSGFSFPSSGVDWVRQAPGQGLEWLGVTFQEGSTHYNQKFQGRVTITKDTSKSTVYMELSSLRSEDTAVYYCASGEHDEGFVYWGQGTLVTVSS
VL: DIQLTQSPSFLSASVGDRVTITCKASQNVGTAVAWYQQKPGKAPKLLIYAASTLQSGVPSRFSGSGSGTEFTLTISSLQPEDFATYYCQQYNSYPFGGGTKVEIKR
notes: IgG
Turning to B10, the binding result is “no binding”.

B11: IgG 1979 (antibody, name in Kabat numbering, V domains shown)
VH: QVQLVQSGAEVKKPGASVKVSCKVSGFSFPSSGVDWVRQAPGQGLEWLGVTRGEGSTHYNQKFQGRVTITKDTSKSTVYMELSSLRSEDTAVYYCASGERDEGFVYWGQGTLVTVSS
VL: DIQLTQSPSFLSASVGDRVTITCKASQNVGTAVAWYQQKPGKAPKLLIYAASTLQSGVPSRFSGSGSGTEFTLTISSLQPEDFATYYCQQYNSYPFGGGTKVEIKR
notes: IgG
Take B11: the binding result was “no binding”.

B12: IgG 1997 (antibody, name in Kabat numbering, V domains shown)
VH: QVQLVQSGAEVKKPGASVKVSCKVSGFSFPSSGVDWVRQAPGQGLEWLGVTRGEGSTHYNQKFQGRVTITKDTSKSTVYMELSSLRSEDTAVYYCASGESTEGFVYWGQGTLVTVSS
VL: DIQLTQSPSFLSASVGDRVTITCKASQNVGTAVAWYQQKPGKAPKLLIYAASTLQSGVPSRFSGSGSGTEFTLTISSLQPEDFATYYCQQYYSTPFGGGTKVEIKR
notes: IgG
Regarding B12, the binding result is “no binding”.

B13: IgG 1991 (antibody, name in Kabat numbering, V domains shown)
VH: QVQLVQSGAEVKKPGASVKVSCKVSGFSFPSSGVDWVRQAPGQGLEWLGVTHGSGSTHYNQKFQGRVTITKDTSKSTVYMELSSLRSEDTAVYYCASGERDEGFVYWGQGTLVTVSS
VL: DIQLTQSPSFLSASVGDRVTITCKASQNVGTAVAWYQQKPGKAPKLLIYAASTLQSGVPSRFSGSGSGTEFTLTISSLQPEDFATYYCQQYNSYPFGGGTKVEIKR
notes: IgG
In the case of B13, the binding result is “no binding”.

B14: IgG 1934 (antibody, name in Kabat numbering, V domains shown)
VH: QVQLVQSGAEVKKPGASVKVSCKVSGFSFPSSGVDWVRQAPGQGLEWLGVTWGVGSTHYNQKFQGRVTITKDTSKSTVYMELSSLRSEDTAVYYCASGEQDEGFVYWGQGTLVTVSS
VL: DIQLTQSPSFLSASVGDRVTITCKASQNVGTAVAWYQQKPGKAPKLLIYAASTLQSGVPSRFSGSGSGTEFTLTISSLQPEDFATYYCQQYYSTPFGGGTKVEIKR
notes: IgG
For B14, the binding result is “no binding”.

B15: IgG 1926 (antibody, name in Kabat numbering, V domains shown)
VH: QVQLVQSGAEVKKPGASVKVSCKVSGFSFPSSGVDWVRQAPGQGLEWLGVTKGQGSTHYNQKFQGRVTITKDTSKSTVYMELSSLRSEDTAVYYCASGEWDEGFVYWGQGTLVTVSS
VL: DIQLTQSPSFLSASVGDRVTITCKASQNVGTAVAWYQQKPGKAPKLLIYAASTLQSGVPSRFSGSGSGTEFTLTISSLQPEDFATYYCQQYYSTPFGGGTKVEIKR
notes: IgG
Consider B15, for which the binding result was “no binding”.

B16: IgG 1924 (antibody, name in Kabat numbering, V domains shown)
VH: QVQLVQSGAEVKKPGASVKVSCKVSGFSFPSSGVDWVRQAPGQGLEWLGVTWGVGSTHYNQKFQGRVTITKDTSKSTVYMELSSLRSEDTAVYYCASGERDEGFVYWGQGTLVTVSS
VL: DIQLTQSPSFLSASVGDRVTITCKASQNVGTAVAWYQQKPGKAPKLLIYAASTLQSGVPSRFSGSGSGTEFTLTISSLQPEDFATYYCQQYNSYPFGGGTKVEIKR
notes: IgG
Take B16: the binding result is on record as “no binding”.

B17: IgG 1932 (antibody, name in Kabat numbering, V domains shown)
VH: QVQLVQSGAEVKKPGASVKVSCKVSGFSFPSSGVDWVRQAPGQGLEWLGVTWGVGSTHYNQKFQGRVTITKDTSKSTVYMELSSLRSEDTAVYYCASGEHDEGFVYWGQGTLVTVSS
VL: DIQLTQSPSFLSASVGDRVTITCKASQNVGTAVAWYQQKPGKAPKLLIYAASTLQSGVPSRFSGSGSGTEFTLTISSLQPEDFATYYCQQYYSTPFGGGTKVEIKR
notes: IgG
Turning to B17, the binding result was “no binding”.

B18: IgG 1978 (antibody, name in Kabat numbering, V domains shown)
VH: QVQLVQSGAEVKKPGASVKVSCKVSGFSFPSSGVDWVRQAPGQGLEWLGVTRGEGSTHYNQKFQGRVTITKDTSKSTVYMELSSLRSEDTAVYYCASGEHDEGFVYWGQGTLVTVSS
VL: DIQLTQSPSFLSASVGDRVTITCKASQNVGTAVAWYQQKPGKAPKLLIYAASTLQSGVPSRFSGSGSGTEFTLTISSLQPEDFATYYCQQYNSYPFGGGTKVEIKR
notes: IgG
Regarding B18, the binding result was “no binding”.

B19: IgG 1931 (antibody, name in Kabat numbering, V domains shown)
VH: QVQLVQSGAEVKKPGASVKVSCKVSGFSFPSSGVDWVRQAPGQGLEWLGVTWGVGSTHYNQKFQGRVTITKDTSKSTVYMELSSLRSEDTAVYYCASGESTEGFVYWGQGTLVTVSS
VL: DIQLTQSPSFLSASVGDRVTITCKASQNVGTAVAWYQQKPGKAPKLLIYAASTLQSGVPSRFSGSGSGTEFTLTISSLQPEDFATYYCQQYYSTPFGGGTKVEIKR
notes: IgG
Take B19: the binding result is “no binding”.

B20: IgG 1990 (antibody, name in Kabat numbering, V domains shown)
VH: QVQLVQSGAEVKKPGASVKVSCKVSGFSFPSSGVDWVRQAPGQGLEWLGVTHGSGSTHYNQKFQGRVTITKDTSKSTVYMELSSLRSEDTAVYYCASGEHDEGFVYWGQGTLVTVSS
VL: DIQLTQSPSFLSASVGDRVTITCKASQNVGTAVAWYQQKPGKAPKLLIYAASTLQSGVPSRFSGSGSGTEFTLTISSLQPEDFATYYCQQYNSYPFGGGTKVEIKR
notes: IgG
Consider B20, for which the binding result is “no binding”.
